# Measurements reported in paper PMC1249579, “RLIP76, a non-ABC transporter, and drug resistance in epilepsy” (BMC Neuroscience, 2005).
# Tests used:
# Assay in all cases: purified protein
# Type in all cases: biochemical, Homo sapiens
# purified protein [1] = substrate: NC(=O)N1c2ccccc2C=Cc2ccccc21; settings: ATP held constant, ATP-dependent transport, MgCl2, pH 7.4, labelled compound
# purified protein [2] = substrate: O=C1NC(=O)C(c2ccccc2)(c2ccccc2)N1; settings: ATP held constant, ATP-dependent transport, MgCl2, pH 7.4, labelled compound
# purified protein [3] = substrate: Nc1ncnc2c1ncn2[C@@H]1O[C@H](COP(=O)(O)OP(=O)(O)OP(=O)(O)O)[C@@H](O)[C@H]1O; settings: co-substrate phenytoin held constant, MgCl2, pH 7.4
protein,measurement,setting,value
"RLIP76 (Homo sapiens) (protein, pET30a(+), E. coli BL21(DE3); reconstituted in asolectin-cholesterol liposomes) MTECFLPPTSSPSEHRRVEHGSGLTRTPSSEEISPTKFPGLYRTGEPSPPHDILHEPPDVVSDDEKDHGKKKGKFKKKEKRTEGYAAFQEDSSGDEAESPSKMKRSKGIHVFKKPSFSKKKEKDFKIKEKPKEEKHKEEKHKEEKHKEKKSKDLTAADVVKQWKEKKKKKKPIQEPEVPQIDVPNLKPIFGIPLADAVERTMMYDGIRLPAVFRECIDYVEKYGMKCEGIYRVSGIKSKVDELKAAYDREESTNLEDYEPNTVASLLKQYLRDLPENLLTKELMPRFEEACGRTTETEKVQEFQRLLKELPECNYLLISWLIVHMDHVIAKELETKMNIQNISIVLSPTVQISNRVLYVFFTHVQELFGNVVLKQVMKPLRWSNMATMPTLPETQAGIKEEIRRQEFLLNCLHRDLQGGIKDLSKEERLWEVQRILTALKRKLREAKRQECETKIAQEIASLSKEDVSKEEMNENEEVINILLAQENEILTEQEELLAMEQFLRRQIASEKEEIERLRAEIAEIQSRQQHGRSETEEYSSESESESEDEEELQIILEDLQRQNEELEIKNNHLNQAIHEEREAIIELRVQLRLLQMQRAKAEQQAQEDEEPEWRGGAVQPPRDGVLEPKAAKEQPKAGKEPAKPSPSRDRKETSI",Km,purified protein [1],0.25 µM
same,Km,purified protein [2],0.43 µM
same,Km,purified protein [3],1330 µM
